Key:
AUC = target: the molecule itself; assay: AUC
[1] = target: the molecule itself

B1: hs PCDH15 EC2-3 WT (domain or fragment)
chain: NSPTFKHESYYATVNELTPVGTTIFTGFSGDNGATDIDDGPNGQIEYVIQYNPDDPTSNDTFEIPLMLTGNIVLRKRLNYEDKTRYFVIIQANDRAQNLNERRTTTTTLTVDVLDGDDLGPMFLPCVLVPNTRDCRPLTYQAAIPELRTPEELNPIIVTPPIQAIDQDRNIQPPSDRPGILYSILVGTPEDYPRFFHMHPRTAELSLLEPVNRDFHQKFDLVIKAEQDNGHPLPAFAGLHIEILDENN
Kd (AUC): < 1000 nM

B2: hs PCDH15 EC1-3 G16D/N369D/Q370N (domain or fragment)
chain: not shown
stoichiometry N [1]: 2
